Experimental data: PMC3836714, “MYB97, MYB101 and MYB120 Function as Male Factors That Control Pollen Tube-Synergid Interaction in Arabidopsis thaliana Fertilization”

T1: MYB101 MYB domain (Arabidopsis thaliana, UniProt O80883 1-133)
T1 sequence: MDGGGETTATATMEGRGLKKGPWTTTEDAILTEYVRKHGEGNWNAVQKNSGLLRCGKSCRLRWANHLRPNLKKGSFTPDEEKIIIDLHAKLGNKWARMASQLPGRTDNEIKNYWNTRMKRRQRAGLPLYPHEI


What was measured:
[1] = molecular target: T1, MYB101 MYB domain; assay: competition; 500x molar excess vs labeled DG2WT; 10 mM Tris-Cl, 50 mM KCl, 1 mM DTT, pH 7.5, room temperature 20 min; 20 fmol probe, 200 ng protein, 50 ng poly(dI-dC) in 20 ul; 6% native PAGE, 0.5x TBE; conditions: protein: recombinant; tags: 6xHis (pET-30a(+)); annealed complementary oligonucleotides
[2] = molecular target: T1, MYB101 MYB domain; assay: EMSA; 10 mM Tris-Cl, 50 mM KCl, 1 mM DTT, pH 7.5, room temperature 20 min; 20 fmol probe, 200 ng protein, 50 ng poly(dI-dC) in 20 ul; 6% native PAGE, 0.5x TBE; conditions: protein: recombinant; tags: 6xHis (pET-30a(+)); annealed complementary oligonucleotides

Row | Binder | binding result [1] | binding result [2]
1 | mDG2WT (dsDNA) DNA 1: GACACAAATCAACAGCTCGAGGACAAAATT DNA 2: AATTTTGTCCTCGAGCTGTTGATTTGTGTC | no binding | 
2 | DG2WT (dsDNA) DNA 1: GACACAAATCAACAGTAACAAAACAAAATT DNA 2: AATTTTGTTTTGTTACTGTTGATTTGTGTC |  | binds
3 | DG1WT (dsDNA) DNA 1: TTATGCATATAACAAAAATAATTTCAATGC DNA 2: GCATTGAAATTATTTTTGTTATATGCATAA |  | binds
4 | DG3WT (dsDNA) DNA 1: ACGTCGGAAGGATTAACAAAAAAAAAGCCGTGGCGTT DNA 2: AACGCCACGGCTTTTTTTTTGTTAATCCTTCCGACGT |  | binds
